Test results published in the supplement of paper PMC12042874.
± gives the uncertainty stated by the source.

Assay: amyloid nucleation score (Sup35N fusion, yeast selection) (log enrichment); library NNK2; higher = more nucleation; inactive = no reads after selection
Outline: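 Peptides of 20 random codons, each fused to Sup35N, were expressed in psi-negative yeast. Cells were induced with 100 μM copper sulfate for 24 hours and grown 7 days at 30°C on medium lacking adenine and uracil, and plasmid inserts before and after selection were Illumina-sequenced. Nucleation scores are DiMSum log enrichments of output over input reads, centred on the mode score of non-aggregating sequences, and sequences under 100 input reads were excluded.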
YQLRCKCSTF gave an amyloid nucleation score of -0.757 ± 0.41.
Work on MQIKFKS yielded an amyloid nucleation score of -0.38 ± 0.56.
HSHVRLWSLRFDAHPNWHDK showed an amyloid nucleation score of 1.15 ± 0.27.
HTWDLYYAIYSA gave an amyloid nucleation score of -1.19 ± 0.36.
For RPWHDLLNLHLYGRFMYTIG, the amyloid nucleation score was 0.415 ± 0.37.
For KHIKWKDCSG, the amyloid nucleation score was -0.091 ± 0.65.
In the case of PCSWPNPHLRIGFRLKSPPP, the amyloid nucleation score is reported as 4.34 ± 0.076.
In the case of DYGWKLMVKVDWFLNGHQ, the amyloid nucleation score is reported as 4.39 ± 0.048.
Work on KYLRVDMVNMNAYKGHWEGS yielded an amyloid nucleation score of 0.526 ± 0.66.
FECVAFSAV showed an amyloid nucleation score of -0.272 ± 0.28.
In the case of KGMLGAASHSQIKFVCVFSW, the amyloid nucleation score is reported as -0.493 ± 0.32.
In the case of IRQIIESWQFLYISVYAGLV, the amyloid nucleation score is reported as 0.186 ± 0.51.
With LRSWSLAMRGDIMGTVRWLR the amyloid nucleation score was 0.413 ± 0.56.
In the case of PLYPLCSHPYVGFVTHTISR, the amyloid nucleation score is reported as -0.053 ± 1.
In the case of RLCAWEVNPARSKAGAV, the amyloid nucleation score is reported as 0.886 ± 0.57.
In the case of NDTWR, the amyloid nucleation score is reported as 3.68 ± 0.049.
For PLNSMNVAESESYGLSQMS, the amyloid nucleation score was 1.28 ± 0.37.
Substance RNTNSANVKSCSMVRNRVWC has an amyloid nucleation score of 0.604 ± 0.66.
With CNIRAYDIISTLMHFVLCH the amyloid nucleation score was -1.67 ± 0.55.
For LICLSMSQCMDCNLGNSWWV, the amyloid nucleation score was “inactive”.
With FCGISSR the amyloid nucleation score was -0.411 ± 0.56.
AVLLNA showed an amyloid nucleation score of 0.181 ± 0.34.
For YTSGMFFMPMQALASETPHA, the amyloid nucleation score was -0.924 ± 0.61.
For GIGLRLCLSDRLWMRSIYVD, the amyloid nucleation score was 3.56 ± 0.082.
In the case of RCSDRKRRFSYSNWYGHGYG, the amyloid nucleation score is reported as -0.448 ± 0.48.
MSSASQILAHDYQNSYG gave an amyloid nucleation score of -0.383 ± 0.32.
In the case of PSFILIFNGCKWVPYASKCG, the amyloid nucleation score is reported as 8.916 ± 0.021.
For VCVLGIGT, the amyloid nucleation score was “inactive”.
With NLHLSGKMGSPTFRVRIYAH the amyloid nucleation score was “inactive”.
For VNTNPMVAVPGMYIYYRWFL, the amyloid nucleation score was “inactive”.
GIKDI gave an amyloid nucleation score of -1.05 ± 0.79.
In the case of FDQLPRVFNYRLAILWAVYR, the amyloid nucleation score is reported as -0.627 ± 0.79.
KKAVSACPLEYSVVINISGG showed an amyloid nucleation score of 7.985 ± 0.026.
Substance NGYRNFIRGHDSRFRGVTTT has an amyloid nucleation score of 4.66 ± 0.05.
With ILVWLGQTEEASVDRRAQHT the amyloid nucleation score was 0.43 ± 0.32.
For TQCRFRTSRVDICKIVKPGS, the amyloid nucleation score was 0.177 ± 0.65.
For CDHQRLMTYLVPAGYMPDTM, the amyloid nucleation score was -0.201 ± 0.62.
Substance VSWAVGQGWTVRSSPRVCGE has an amyloid nucleation score of 0.267 ± 0.42.
Work on SSPSYSSSSHKRTL yielded an amyloid nucleation score of 2.14 ± 0.25.
For LKGCQDLLLVDSGGSTTWYG, the amyloid nucleation score was -0.836 ± 0.63.
With SSYRINPRKPLR the amyloid nucleation score was 0.028 ± 0.63.
For VWPTMCTVFAMF, the amyloid nucleation score was 2.51 ± 0.065.
Work on GNQRFVFVLRMGTVGPLHMF yielded an amyloid nucleation score of 0.836 ± 0.55.
Work on LARACKIEAYFLLVHVSIMC yielded an amyloid nucleation score of -0.174 ± 0.76.
Work on HRSNFVVKLAASGSFTTGCR yielded an amyloid nucleation score of 0.376 ± 0.29.
In the case of LLKGVASVQSTDAVRHMWSS, the amyloid nucleation score is reported as 0.252 ± 0.8.
Substance VYSPFLICI has an amyloid nucleation score of 0.174 ± 1.
GLVRSRVWRRASSPGYGECV showed an amyloid nucleation score of 1.3 ± 0.33.
For WEDKVAGSMGAWDDLG, the amyloid nucleation score was 0.791 ± 0.67.
GSRCITQVLA showed an amyloid nucleation score of 0.157 ± 0.49.
VNWVGLSLKIRGYFTVSTWR gave an amyloid nucleation score of -0.141 ± 0.54.
With ALSNGNVLHGLSMLSYMHCW the amyloid nucleation score was -0.388 ± 1.1.
With FVLLGGMTWHT the amyloid nucleation score was 5.512 ± 0.027.
PESGGNAIFAHERMQLGRRS gave an amyloid nucleation score of 0.92 ± 0.57.
For WVQHYCSEFLL, the amyloid nucleation score was -0.313 ± 0.63.
SRSVEGLKLWATNSAGHVVA showed an amyloid nucleation score of 0.958 ± 0.3.
Substance NTMTSHMFENNRSIVTYLDV has an amyloid nucleation score of -0.718 ± 0.76.
SGFTVEESWTLLCRIVSREG showed an amyloid nucleation score of 1.22 ± 0.34.
Substance CVCYDLYELLAITQLHLWSF has an amyloid nucleation score of -0.344 ± 0.48.
In the case of RSFHVEYILM, the amyloid nucleation score is reported as 3.23 ± 0.068.
LVEFSSRFQLGFTGSVNS gave an amyloid nucleation score of 1.21 ± 0.16.
For SSKTGWSHGIMVQPK, the amyloid nucleation score was “inactive”.
Work on LLEFTLLTISQRPYTWNTVE yielded an amyloid nucleation score of 0.862 ± 0.17.
In the case of ACRAICVPKGVGYWFCVTSE, the amyloid nucleation score is reported as 0.54 ± 0.51.
With CKENFKIFFDFYYGMTSVLS the amyloid nucleation score was “inactive”.
For SHSYGTER, the amyloid nucleation score was 4.64 ± 0.074.
KTRYALPVDQCYMKNRNMLV gave an amyloid nucleation score of 0.295 ± 0.51.
Substance NQITDMLIFWFVGIRWFYSE has an amyloid nucleation score of 0.679 ± 0.81.
With RLRDRNDHVLRCSHYWIQDW the amyloid nucleation score was 0.956 ± 0.57.
Work on TGHLEEMYKYDALYSSAKRA yielded an amyloid nucleation score of 1 ± 0.48.
With DHLNV the amyloid nucleation score was -0.401 ± 0.63.
For TCLTFRFI, the amyloid nucleation score was “inactive”.
KGALCLSV showed an amyloid nucleation score of -0.148 ± 0.39.
VKEYYSTGSTWRLYWMWSDW showed an amyloid nucleation score of 0.282 ± 0.36.
With HLWFEDAQFAIAKFKCGGKR the amyloid nucleation score was 6.16 ± 0.086.
KYNDGEFIVVIVGILAYAVV gave an amyloid nucleation score of -0.238 ± 0.34.
For CGILYSFDGRFVYWSSYGSS, the amyloid nucleation score was -0.353 ± 0.79.
YNSMSVSILNVYYDQPWSLS gave an amyloid nucleation score of 8.768 ± 0.049.
Work on IRLAYASRNWCSSFGCGRMI yielded an amyloid nucleation score of -0.571 ± 0.55.
For YFGCQMMSN, the amyloid nucleation score was 0.459 ± 0.54.
In the case of SSFSHLSNAIGMPFICNCEP, the amyloid nucleation score is reported as -0.385 ± 0.45.
With LGPMTLATTLFNCKDRHVSP the amyloid nucleation score was 0.438 ± 0.29.
CKDTTKPGYFGFDIFPNVYE showed an amyloid nucleation score of 2.37 ± 0.15.
WRPKPKWFLGGYGWTGERRL gave an amyloid nucleation score of 0.418 ± 0.51.
Substance FSGSALGCEMRYCSRVYWQR has an amyloid nucleation score of 4.46 ± 0.063.
In the case of GEQLLED, the amyloid nucleation score is reported as “inactive”.
